The values below come from patent US20170037110A1 (IMMATICS BIOTECHNOLOGIES, published 2017).

For this assay, the target named is T1, HLA-A*02:01 (human).
T1 construct: monomers captured on streptavidin plates; also called MHC class I
Description: UV peptide exchange ELISA. An excerpt: Candidate peptides for T cell based therapies according to the present invention were further tested for their MHC binding capacity (affinity). The individual peptide-MHC complexes were produced by UV-ligand exchange, where a UV-sensitive peptide is cleaved upon UV-irradiation, and exchanged with the peptide of interest as analyzed. Only peptide candidates that can effectively bind and stabilize the peptide-receptive MHC molecules prevent dissociation of the MHC complexes. To determine the yield of the exchange reaction, an ELISA was performed based on the detection of the light chain (p2m) of stabilized MHC complexes.
96 well MAXISorp plates (NUNC) were coated over night with 2 μg/ml streptavidin in PBS at room temperature, washed 4× and blocked for 1 h at 37° C. in 2% BSA containing blocking buffer. […] Peptide-MHC monomers of the UV-exchange reaction were diluted 100 fold in blocking buffer. Samples were incubated for 1h at 37° C., washed four times, incubated with 2 μg/ml HRP conjugated anti-p2m for 1h at 37° C., washed again and detected with TMB solution that is stopped with […]. Absorption was measured at 450 nm.
(In general: In an ELISA, binding on a coated surface is turned into a signal by an enzyme label.)

In the case of ALMNTLLYL, the peptide exchange yield lay in the range of 20 to 50%.

In turn, AIAYILQGV gave a peptide exchange yield of 20 to 50%.

The molecule ALLEASGTLLL gave a peptide exchange yield of at least 75%.

Molecule LLFGSVQEV registered a peptide exchange yield of 50 to 75%. With ALQDVPLSSV the figure was 50 to 75%. FLLDLDPLLL displayed a peptide exchange yield of 50 to 75%.

As to AAFAGKLLSV, the peptide exchange yield lay within 50 to 75%. With YLMDESLNL the figure was 50 to 75%; with ALGPEGGRV, 20 to 50%. For VLQEGKLQKLAQL the value was 50 to 75%. Molecule LLQKFVPEI had a peptide exchange yield of 20 to 50%. ILLEQAFYL had a peptide exchange yield of 50 to 75%. The molecule ILVDWLVEV showed a peptide exchange yield of 10 to 20%. For ILVDWLVQV, the peptide exchange yield is 50 to 75%. Molecule KTINKVPTV had a peptide exchange yield of 50 to 75%.

SALEELVNV yielded a peptide exchange yield of 20 to 50%. For KIAENVEEV the value was 20 to 50%. On to SLLKVLPAL, for which the peptide exchange yield is 50 to 75%. Molecule AMQEYIAVV registered a peptide exchange yield of 20 to 50%. With ALWDQDNLSV the figure was 20 to 50%; with FLSPQQPPLLL, 20 to 50%; with VLSETLYEL, 20 to 50%. Consider QLINHLHAV, for which the peptide exchange yield is 50 to 75%.

Turning to KLIESKHEV, the peptide exchange yield lay within 20 to 50%.

On to VLLTFKIFL, for which the peptide exchange yield fell in the range of 20 to 50%. Consider LLLNAVLTV, for which the peptide exchange yield lay within 20 to 50%. For GLTSTNAEV the value was 20 to 50%; for NLIENVQRL, 20 to 50%; for SLWPDPMEV, 50 to 75%.

In turn, LLWPGAALL displayed a peptide exchange yield of 20 to 50%.

The molecule SLVEVNPAYSV came in with a peptide exchange yield of 50 to 75%.

Regarding ALLENIALYL, the peptide exchange yield lay in the range of 50 to 75%.

In turn, KISPVTFSV yielded a peptide exchange yield of 50 to 75%. The molecule RLVDYLEGI gave a peptide exchange yield of 50 to 75%. With GLLEAKVSL the figure was 50 to 75%; with TLIDAQWVL, 50 to 75%; with AAYGGLNEKSFV, 50 to 75%.

Consider NLWEDPYYL, for which the peptide exchange yield lay within 50 to 75%. For ALYEEGLLL, the peptide exchange yield is 20 to 50%. KLSDIGITV: the peptide exchange yield lay within 50 to 75%.

With ALLEAQDVELYL, the peptide exchange yield was in the range of 20 to 50%. Consider ALMEDTGRQML, for which the peptide exchange yield fell in the range of 20 to 50%. For RLPGPLGTV the value was 20 to 50%; for YLISFQTHI, 50 to 75%; for ALLDQQGSRWTL, 50 to 75%.

As for YLNDLHEVLL, the peptide exchange yield was at least 75%. For MLYVVPIYL the value was 20 to 50%. In turn, SLYPGTETMGL came in with a peptide exchange yield of 50 to 75%. Molecule ALIHPVSTV came in with a peptide exchange yield of 20 to 50%.
